The source of these data is article PMC5062604.

For the test, the target named is Pseudomonas aeruginosa type I-F CRISPR-Cas surveillance complex (Csy complex) (P. aeruginosa) (UniProt Q02MM1). As to the kind of experiment: SEC; competition: purified Csy complex pre-incubated 1 h with a 10-fold molar excess of FLAG-tagged AcrF1 (mutant or wild type), then an equal amount of HA-tagged wild-type AcrF1 added for 1 h; size exclusion chromatography; peak fractions by SDS-PAGE, silver staining and Western blot.

As for “FLAG-tagged AcrF1 E31A (natural protein)”, the percent exchanged with HA-tagged wild-type AcrF1 at 1 h amounted to 50%. Regarding “FLAG-tagged AcrF1 Y20A (natural protein)”, the percent exchanged with HA-tagged wild-type AcrF1 at 1 h is 50%.
